These results are taken from patent publication US6132750A (Coletica, priority 1998, dated 2000).

This test in a line: Inhibition of the Fe2+ induced radical degradation of hyaluronic acid (viscosity drop). The procedure:
The chelating microspheres prepared according to I2 are used to evaluate their capacity, via the trapping of ferrous iron Fe2+, to inhibit the radical degradation of hyaluronic acid, glycosarinoglycan implied in the moisturisation of the human dermis, which is therefore a particularly important target to protect in cosmetic and dermo-pharmaceutical applications.
A 10 g/l solution of hyaluronic acid of high molecular weight (>1,000,000g/mol or Daltons) is prepared in demineralised water. To this solution is added an amount of Fe2+ of 620 ppm.
Other chelating agents which are conventionally used in cosmetics were used and compared to the chelating microspheres, for their capacity to reduce the radical degradation of hyaluronic acid. Indices of protection, expressed in % of protection, are calculated by carrying out a ratio of the drop in viscosity observed by the presence of iron Fe2+ (620 ppm) in the presence of the chelating agent studied, and the drop in viscosity observed with and without iron Fe2+.

B1: Lactoferrin (protein, UniProt P02788 20-710, looked up)
Lactotransferrin: GRRRSVQWCAVSQPEATKCFQWQRNMRKVRGPPVSCIKRDSPIQCIQAIAENRADAVTLDGGFIYEAGLAPYKLRPVAAEVYGTERQPRTHYYAVAVVKKGGSFQLNELQGLKSCHTGLRRTAGWNVPIGTLRPFLNWTGPPEPIEAAVARFFSASCVPGADKGQFPNLCRLCAGTGENKCAFSSQEPYFSYSGAFKCLRDGAGDVAFIRESTVFEDLSDEAERDEYELLCPDNTRKPVDKFKDCHLARVPSHAVVARSVNGKEDAIWNLLRQAQEKFGKDKSPKFQLFGSPSGQKDLLFKDSAIGFSRVPPRIDSGLYLGSGYFTAIQNLRKSEEEVAARRARVVWCAVGEQELRKCNQWSGLSEGSVTCSSASTTEDCIALVLKGEADAMSLDGGYVYTAGKCGLVPVLAENYKSQQSSDPDPNCVDRPVEGYLAVAVVRRSDTSLTWNSVKGKKSCHTAVDRTAGWNIPMGLLFNQTGSCKFDEYFSQSCAPGSDPRSNLCALCIGDEQGENKCVPNSNERYYGYTGAFRCLAENAGDVAFVKDVTVLQNTDGNNNEAWAKDLKLADFALLCLDGKRKPVTEARSCHLAMAPNHAVVSRMDKVERLKQVLLHQQAKFGRNGSDCPDKFCLFQSETKNLLFNDNTECLARLHGKTTYEKYLGPQYVAGITNLKKCSTSPLLEACEFLRK
notes: chelating agent conventionally used in cosmetics for trapping iron
B1: the “Index of protection (%)” value (concentration used 133 mg/l, hyaluronic acid 10 g/l, Fe2+ 620 ppm) stood at 25%. For the same molecule, the “effect on the depolymerisation (radical cleavage) of hyaluronic acid in the presence of iron” value (in words) is “accelerated”.
